Experiment: yeast display, Sf9 membrane polyspecificity reagent, FACS + sequencing; frameworks hold sequencing errors
Procedure, shortened: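 Nanobodies came from a synthetic yeast display library in Saccharomyces cerevisiae BJ5465, induced with galactose for 36–48 hours and stained for 1 hour at 4 °C with 10% biotinylated, detergent-solubilized Sf9 membrane reagent. Cells were enriched on streptavidin microbeads and then FACS-sorted, with low and high (top ~1%) gates set on anti-HA fluorescence for expression and streptavidin fluorescence for reagent binding. Each polyreactivity label reflects the gate a clone came from. Genes were amplified by colony PCR, sequenced by MiSeq 2 × 250 and filtered by CDR length.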

Sequence | polyreactivity (PSR sort gate)
QVQLVESGGGLVQAGGSLRLSCAASGSTLNLYAMGWFRQAPGKEMELVAAIRSHGVSTYYADSVKGRFTISRDNAKNTVYLQMNRLKPEYTAFYYCAGVYIPGGRYTYFPYKRYDYWGQGTQVTVSS | high polyreactivity
QVQLVESGGGLVQAGGSLRLSCAASGSTLNSYVMGWYRQAPGKERELVATIRSGSSTNYADSVNGRFTISRDNAKNTVYLQMNSLKPEDTAVYYCAADAYSLCYDSWGQGTQVTVSS | low polyreactivity
QVQLVESGGGLVQAGGSLRLSCAASGSTLPPYVMGRYRQAPGKERELVAAISSSSGSTYYADSVKGRFTISRDNAKNTVYLQRNSLKPEDTAVYYCAAVTGWAREEEYWGQGTQVTVSS | low polyreactivity
QVQLVESGGGLVQAGGSLRLSCAASGSTLPYYAMGWYRQAPGKERELVAAITSSGGDTYYADSVKGRFTISRDNAKNTVYLQMNSLKPEDTAVYYCAKSYSARSTVRKLFYFAYDYWGQGTQVTVSS | low polyreactivity
QVQLVESGGGLVQAGGSLRLSCAASGSTLQYYDMGWYRQAPGKERELVAAITWSTGTTYYADSVKGRFTISRDNAKNTVYLQMNSLKPEDTAVYYCAVDSYYRATYTNRYDYWGQGTQVTVSS | low polyreactivity
QVQLVESGGGLVQAGGSLRLSCAASGSTLRGYALGWYRQAPGKERELVAAISKNGGSTYYADSVKGRFTISRDNAKNTVYLQMNSLNPEDTAVYYCAAYKAVPHYYYWGQGTQVTVSS | high polyreactivity
QVQLVESGGGLVQAGGSLRLSCAASGSTLRPYGMGWYRQAPGKERELVATIRSSSGRTYYADSVKGRFTISRDNAKTTVYLQMTSLKPEDTAVYYCARRYITNIKYDYWGQGTQVTVSS | high polyreactivity
QVQLVESGGGLVQAGGSLRLSCAASGSTLRRNAMGWYRQAPGTERELVAAITGSRGSTFYADSVKGRFTISRDNAKNTVYLQMNSLKPEDTAVYYCAVYKWSTRVSQYRYDYWGQGTQVTVSS | high polyreactivity
QVQLVESGGGLVQAGGSLRLSCAASGSTLRRYAMGWDRQAPGKERELVAAISGSGDSTYYADSVKGRFTISRDNAKNTVYLQMNSLKPEDTAVYYCNAVYAFNGYDYWGQGTQVTVSS | low polyreactivity
QVQLVESGGGLVQAGGSLRLSCAASGSTLRYYGMGWYRQAPGKEREFVATLSWGGGSTYYADSVKGRFTISRDNAKNTVYLQINSLKPEDTAVYYCAASWNGGLFQTKYGYWGQGTQVTVSS | high polyreactivity
QVQLVESGGGLVQAGGSLRLSCAASGSTLSANAMGWYRQAPGKERELVAAISWNGGSTYYADSVKGRFTISRDNAKNTVYLQMNSLKPEDTAVYYCAAEYIVTYEYWYFGYDYWGQGTQVTVSS | low polyreactivity
QVQLVESGGGLVQAGGSLRLSCAASGSTLSFNAMGWYRQAPGKERELVAAITSSGGSTYYADSVKGRFTISRDNAKNTVYLQMKSLKPEDTAVYYCAADRYTVRMDYWGQGTQVTVSS | high polyreactivity
QVQLVESGGGLVQAGGSLRLSCAASGSTLSNNAMGWYRQAPGKERELVAAINDSAGSTYYADSVKGRFTISRDNAKNTVYLQMNSLKPEDTAVYYCAAKNYGRSFYYGYDYWEQGTQVTVSS | low polyreactivity
QVQLVESGGGLVQAGGSLRLSCAASGSTLSVYAKGSYIQAPGKEREFVASISSSVGRTFYADSVKGRFTISRDNANNTVYLQMNSLNQEDTAVYYCAARRRTFYASSSAINGYDYWRQGTQVTVSS | high polyreactivity
QVQLVESGGGLVQAGGSLRLSCAASGSTLTSNAIGWYRQAPGKERELVAAIRSGGSTNYADSVKGRFTISRDNAKNTVYLQMYSLNPEDTAVYYCNAEEKVTYSASYYWVYDAMDHWGQGTQVTVSS | low polyreactivity
QVQLVESGGGLVQAGGSLRLSCAASGSTLVFYAMGWYRQAPGKERELVAAITRSGGSTYYADSVKGRFTISRDNEKNTVYLQMNSLKPEDTAFYYCAADERYIYERDSWGQGTQVTVSS | low polyreactivity
QVQLVESGGGLVQAGGSLRLSCAASGSTLVLNALGWYRQAPGKERELVAAITISGDTTYYADSVKGRFTISRDNAKNTVYLQMNSLKPEDTAVYYCAAVVSTVDGMEYWGQGTQVTVSS | low polyreactivity
QVQLVESGGGLVQAGGSLRLSCAASGSTLVYNDMGWYRQAPGKEREFVAAIRSNDGSTYYADSVKGRFTISRDNAKNTVYLQMNSLKPEDTAVYYCAARYPARGTLYYWGQGTQVTVSS | low polyreactivity
QVQLVESGGGLVQAGGSLRLSCAASGSTLWGYAMGWYRPAPGKERELVAAITSSGGITYYADSVKGRFTISRDNAKNTVYLQMNSLKPEDTAVYYCAVDYYVVGWTYLYYYRGQGTQVTVSS | low polyreactivity
QVQLVESGGGLVQAGGSLRLSCAASGSTLWGYVMGWYRQAPGKERELVAVISKSGGSTYYADSVKGRFTISRDNAKNTVYLQMNSLKPEDTAVYYCATRGPYRSDWGQGTQVTVSS | high polyreactivity
QVQLVESGGGLVQAGGSLRLSCAASGSTLWRSAMGWYRQAPGKERELVAGISRGGGSTYYADSVKGRFTISRDNAKNTVYLQMHSLKPEDTAVYYCATPVYQVRGAFDYWGQGTQVTVSS | low polyreactivity
QVQLVESGGGLVQAGGSLRLSCAASGSTLWYNAMGWYRQAPGKERELVASITSDGGSSTYADSVKGRFTISRDNAKNTVYLQMNSQKPEDTAVYYCAADWPIVQYDYWGQGTQVTVSS | low polyreactivity

Sequence | polyreactivity (PSR sort gate)
QVQLVESGGGLVQAGGSLRLSCAASGSTLYFYAMGWYRQAPGKERELVADITRSGGSTYYADSVKGRFTISRDNAKNTVYLQMNSLKPEDTAVYYCNADDWSTYWYGYPGYDYWGQGTQVTVSS | high polyreactivity
QVQLVESGGGLVQAGGSLRLSCAASGSTLYGYAMGWYRQAPGNERELVAAISVSGGRTYYADSVKGRFTISRDNAKNTVYLQMNSLKPEDTAVYYCAAYGTTRMDYWGQGTQVTVSS | high polyreactivity
QVQLVESGGGLVQAGGSLRLSCAASGSTLYPNAMGWYRHAPGKERELVAAISSGSSTYADSVKGRFTISRDNAKNTVYLQMNSLKPEDTAVYYCNADSRIHYDYWGQGTQLTVSS | low polyreactivity
QVQLVESGGGLVQAGGSLRLSCAASGSTLYPNAMGWYRQAPGKERELVAAISSGSSTYADSVKGRFTISRDNAKNTVYLQMNRLKPEDTAVYYCNADSRIHYDYWGQGTQVTVSS | low polyreactivity
QVQLVESGGGLVQAGGSLRLSCAASGSTLYQYTMGWYRQAPGKERELVAGISRRGGSTYYADSVKGRFTISRDNAKNTVYLQMNSLKPEDTAVYYCAKRPPYIAWYGYNGDYWGQGTQVTVSS | high polyreactivity
QVQLVESGGGLVQAGGSLRLSCAASGSTLYRYAMGWYRQAAGKERELVATITRSGGSTYYADSVKGRFTISRDNAKNTVYLQMNSLKPEDTAVYSCAAYRKVGGFSRGDYWGQGTQVTVSS | high polyreactivity
QVQLVESGGGLVQAGGSLRLSCAASGSTLYSYAMGWYRQAPGKERELVAAISIGDSTNYADSVKGRFTISRDNAKNTVYLQMNSLKPVDTAVYYCAADWDESYSYRRYRHYDYWGQGTQVSVSS | low polyreactivity
QVQLVESGGGLVQAGGSLRLSCAASGSTLYTYAMGWYRPAPGKERELVAAIRLSGGRTYYADSVKGRFTISRDNAKNTVYLQMNSLKPEDTAVYYCAVDWSYSRYDYWGQGTQVTVSS | high polyreactivity
QVQLVESGGGLVQAGGSLRLSCAASGSTLYTYAMRWYRQAPGKERELVAAIRLSGGRTYYADSVKGRFTISRDNAKNTVYLQMYSLKPEDTAVYDFAVDWSYSRYDYWGQGTQVTVSS | high polyreactivity
QVQLVESGGGLVQAGGSLRLSCAASGSTLYVNAMGLYRQAPGKERELVAAISWRGDRTYYADSVKGRFTISRDNAKNNVYLQMNSLKPEDTAVYYCAKDYWWKGTTLYYNLDYWGQGTQVTVSS | high polyreactivity
QVQLVESGGGLVQAGGSLRLSCAASGSTLYWYAMGWYRQAPGKERELVARITVSGGSTSYADSVKGRFTISRYNAKNTVYLQMNSLKPEDTAVYYCAARRYWTGYYYWGQGTQVTVSS | high polyreactivity
QVQLVESGGGLVQAGGSLRLSCAASGSTLYYNAMGWYRQAPGKERELVAAISWSGGSTYYADSVKGRFTISRDNAKNTVYLQMNSLKPEDTAVYYCAADQSTVLDVGSWGQGTQVTVSS | low polyreactivity
QVQLVESGGGLVQAGGSLRLSCAASGSTLYYNAMGWYRQAPGKESELVAAISWSGGSTYYADSVKGRFTISRDNAKNTVYLQMNSLKPEDTAVYYCAADQSTVLDVGSWGQGTQVTVSS | low polyreactivity
QVQLVESGGGLVQAGGSLRLSCAASGSTRGYAMGWYRQAPGKEREMVAAIRSSGSTNYADSVKGRFTISRDNAKNTVYLQMNSLKPEDTAVYFCATDGHYLYSWYKYDYWGQGTQVTVSS | low polyreactivity
QVQLVESGGGLVQAGGSLRLSCAASGSTRYYAMGWYRHAPGKERELVASITTIGGSTSYADSVKGRFTISRDNAKNTVYLQMNSLKPEDTAVYYCATRSLVYSARAAGLIQFDHWGQGTQVNVSS | low polyreactivity
QVQLVESGGGLVQAGGSLRLSCAASGSTSDINAMGWYRQAPGKERELVAVITFSGGSTNYADSVKGRFTISRDNAKNTVYLQMHSLKPEDTAVYYCNADTLTTTRRFNPYDYWGQGTQVTVSS | low polyreactivity
QVQLVESGGGLVQAGGSLRLSCAASGSTSDINAMGWYRQARGKEWQLVAVITDSSNTDYADSVKGRFTISRDNAKNTVYLEMNSLKPEETAVYYCAADRDEPDPYDYWGPGTQVTVSS | low polyreactivity
QVQLVESGGGLVQAGGSLRLSCAASGSTSGPYAMGWYRTAPGKERELVATISWIGDRTYYADSVKGRFTISRDNAKNTIYLQMNSLKPEDTAVYYCNDDYRGYANLEGDYWGQGTQVTVSS | low polyreactivity
QVQLVESGGGLVQAGGSLRLSCAASGSTSIEYGMGWYRQAPGKERELVATISIGSSTNYADSVKGRFTISRDNAKNTVYLQMNSLKPEDTAVYYCAADAYLDYYTGYYYQEYDSWGQGTQVTVSS | low polyreactivity
QVQLVESGGGLVQAGGSLRLSCAASGSTSILYAMGWYRQAPGKERELVAAISRSGGSTYYADSVKGRFTISRDNAKNTVYLQMNSLKPEDTAVYYCAAQWVYQYGFNYWGQGTQVTVSS | high polyreactivity
QVQLVESGGGLVQAGGSLRLSCAASGSTSKNYAMGWYRQAPGKERELVAAITRGTSTNYADSVKGRFTISRDNAKNTVYLQMNSLKPEDTAVYYCNVERHRVWDYQWREEDDYWGQGTQVTVSS | low polyreactivity

Source: the nanobody polyreactivity screen of Harvey et al. (2022)
